According to the Human Domainome abundance scans (Beltran et al. 2025):
± gives the uncertainty stated by the source.

B1: Transcription intermediary factor 1-beta, residues 620 to 671; numbered along this chain, Q13263 (parent)
chain: TLDDSATICRVCQKPGDLVMCNQCEFCFHLDCHLPALQDVPGEEWSCSLCHV
B2: Zinc finger MYM-type protein 2, residues 463 to 506; numbered along this chain, Q9UBW7 (parent)
chain: IMNCCEQCGEYLPSKGAGNNVLVIDGQQKRFCCQSCVSEYKQVG

Variants of: B1
Experiment: abundance fitness (aPCA) (normalised: wild type 0, dead -1); higher = more abundant; growth selection in yeast, the domain comes from the species named
Settings: Homo sapiens

Row | Variant | abundance fitness
1 | V52L | -0.369 ± 0.17
2 | V52P | 0.041 ± 0.17
3 | V52R | 0.137 ± 0.15
4 | V52S | 0.075 ± 0.27
5 | V52T | -0.11 ± 0.21
6 | V52Y | -0.284 ± 0.39

Variants of: B2
Experiment: as above
Settings: Homo sapiens

Row | Variant | abundance fitness
7 | A17R | -0.628 ± 0.11
8 | V21C | -0.302 ± 0.23
9 | N20H | 0.087 ± 0.16
10 | C8Q | -0.573 ± 0.4
11 | Q34C | -0.113 ± 0.11
12 | Q7T | -0.139 ± 0.13
13 | C33P | -0.342 ± 0.09
14 | V37D | -0.227 ± 0.1
15 | V37M | 0.181 ± 0.14
16 | C5D | -0.637 ± 0.099
17 | G18C | -0.247 ± 0.15
18 | A17Q | -0.069 ± 0.1
19 | S14D | 0.241 ± 0.13
20 | Y40T | 0.11 ± 0.11
21 | Q34S | 0.009 ± 0.085
22 | G9T | -0.018 ± 0.099
23 | V21E | 0.128 ± 0.092
24 | N19G | 0.006 ± 0.08
25 | Y11P | 0.144 ± 0.088
26 | Q28M | -0.123 ± 0.15
27 | Q34I | -0.448 ± 0.21
28 | V21G | -0.129 ± 0.088
29 | I1Y | -0.402 ± 0.21

Row | Variant | abundance fitness
30 | V21S | -0.153 ± 0.1
31 | Q27F | -0.173 ± 0.23
32 | S38E | 0.062 ± 0.09
33 | I1L | -0.246 ± 0.29
34 | N19L | -0.051 ± 0.1
35 | V23H | -0.079 ± 0.12
36 | C4M | -0.146 ± 0.11
37 | C36V | -0.463 ± 0.091
38 | K41Y | -0.41 ± 0.25
39 | G9Y | 0.102 ± 0.15
40 | I1S | -0.172 ± 0.12
41 | F31M | -0.267 ± 0.075
42 | V37A | -0.063 ± 0.083
43 | N3C | -0.215 ± 0.36
44 | L12K | -0.312 ± 0.093
45 | V43R | -0.039 ± 0.1
46 | R30L | 0.177 ± 0.069
47 | Q28P | -0.065 ± 0.11
48 | K29A | -0.235 ± 0.085
49 | C36R | -0.37 ± 0.079
50 | Y11N | 0.28 ± 0.097
51 | L22C | -0.258 ± 0.13
52 | K41V | -0.221 ± 0.094

Row | Variant | abundance fitness
53 | I1A | -0.051 ± 0.085
54 | P13W | -0.536 ± 0.13
55 | Q28W | -0.405 ± 0.094
56 | N3H | -0.154 ± 0.1
57 | E6Q | -0.116 ± 0.15
58 | N19H | -0.157 ± 0.11
59 | C32E | -0.339 ± 0.085
60 | Q27S | -0.172 ± 0.12
61 | F31N | -0.392 ± 0.37
62 | Q42P | -0.169 ± 0.22
63 | Q34N | -0.028 ± 0.25
64 | Y11L | 0.034 ± 0.1
65 | N3K | -0.231 ± 0.089
66 | G9C | -0.148 ± 0.12
67 | Y40V | -0.108 ± 0.1
68 | V21N | -0.397 ± 0.47
69 | E10P | -0.356 ± 0.17
70 | L22P | -0.059 ± 0.17
71 | L22S | -0.164 ± 0.13
72 | Q7V | -0.288 ± 0.082
73 | C36T | -0.106 ± 0.13
74 | Y40G | 0.057 ± 0.096
75 | N20W | -0.191 ± 0.079

Row | Variant | abundance fitness
76 | K29V | -0.078 ± 0.082
77 | G9A | -0.17 ± 0.082
78 | E6N | -0.241 ± 0.19
79 | C32N | -0.655 ± 0.26
80 | Q42H | -0.08 ± 0.12
81 | E10V | -0.86 ± 0.1
82 | V21L | -0.162 ± 0.11
83 | I24G | -0.066 ± 0.084
84 | Q34D | 0.013 ± 0.12
85 | N19M | -0.061 ± 0.19
86 | Y11T | 0.319 ± 0.098
87 | G16L | -0.214 ± 0.08
88 | Q34K | -0.213 ± 0.13
89 | I1F | -0.307 ± 0.13
90 | G44W | -0.189 ± 0.088
91 | C8D | -0.77 ± 0.21
92 | L22W | -0.187 ± 0.13
93 | E10S | -0.358 ± 0.14
94 | C36Y | -0.445 ± 0.15
95 | I24A | 0.005 ± 0.094
96 | E39Y | 0.032 ± 0.15
97 | K41T | 0.209 ± 0.13
98 | Q28L | -0.346 ± 0.12

Row | Variant | abundance fitness
99 | Q28D | 0.189 ± 0.22
100 | C33L | -0.385 ± 0.097
101 | G18D | 0.59 ± 0.5
102 | C4K | 0.125 ± 0.12
103 | D25M | -0.35 ± 0.32
104 | V21W | -0.02 ± 0.11
105 | V23T | 0.15 ± 0.13
106 | A17G | -0.095 ± 0.095
107 | C8W | -1.41 ± 0.12
108 | V23Q | 0.181 ± 0.15
109 | F31A | -0.175 ± 0.074
110 | I24V | -0.088 ± 0.12
111 | F31Q | -0.119 ± 0.097
112 | G9I | -0.417 ± 0.17
113 | F31Y | -0.144 ± 0.12
114 | R30G | 0.026 ± 0.071
115 | I1P | -0.222 ± 0.33
116 | K15W | -0.124 ± 0.093
117 | E39T | 0.093 ± 0.13
118 | V43E | -0.067 ± 0.091
119 | D25R | -0.229 ± 0.11
120 | E10I | -0.66 ± 0.28
121 | L12R | -0.498 ± 0.072

Row | Variant | abundance fitness
122 | Y40F | -0.334 ± 0.4
123 | L22A | -0.072 ± 0.088
124 | C32Y | -0.634 ± 0.33
125 | C5W | -1.5 ± 0.12
126 | L12Q | -0.294 ± 0.1
127 | C32Q | -0.518 ± 0.11
128 | P13S | -0.207 ± 0.12
129 | C33S | 0.024 ± 0.093
130 | C32T | -0.433 ± 0.085
131 | C5M | -0.979 ± 0.35
132 | Q7E | -0.26 ± 0.094
133 | G16E | 0.136 ± 0.11
134 | G16V | -0.272 ± 0.14
135 | L22I | -0.142 ± 0.18
136 | V23K | -0.052 ± 0.1
137 | Y11K | 0.361 ± 0.13
138 | Q28N | -0.29 ± 0.18
139 | E6T | -0.222 ± 0.14
140 | S38L | -0.038 ± 0.081
141 | N19K | -0.287 ± 0.11
142 | S14R | -0.456 ± 0.089
143 | L22F | -0.184 ± 0.35
144 | D25G | -0.076 ± 0.082

Row | Variant | abundance fitness
145 | L12G | -0.385 ± 0.068
146 | V37S | -0.161 ± 0.099
147 | C36E | -0.376 ± 0.092
148 | Q7Y | -0.222 ± 0.13
149 | C5S | -0.524 ± 0.11
150 | G26W | -0.337 ± 0.075
151 | D25A | -0.117 ± 0.12
152 | M2N | -0.009 ± 0.29
153 | Y40C | 0.429 ± 0.29
154 | C5T | -0.587 ± 0.13
155 | Q34V | 0.036 ± 0.084
156 | Q28K | -0.301 ± 0.18
157 | V21M | -0.103 ± 0.11
158 | K15S | 0.114 ± 0.13
159 | G18S | -0.347 ± 0.18
160 | V21R | -0.264 ± 0.086
161 | Y40Q | 0.067 ± 0.12
162 | N3D | -0.045 ± 0.12
163 | Y11D | 0.282 ± 0.11
164 | N3W | -0.402 ± 0.12
165 | Q42A | 0.109 ± 0.078
166 | D25Q | -0.367 ± 0.17
167 | V37K | -0.101 ± 0.085
